# Source: PMC8096781, “FOXM1D potentiates PKM2‐mediated tumor glycolysis and angiogenesis” (Molecular Oncology, 2021)
# B1: recombinant Flag-FOXM1D (purified) (natural protein, UniProt Q08050-4 1-786, looked up)
# chain: MKTSPRRPLILKRRRLPLPVQNAPSETSEEEPKRSPAQQESNQAEASKEVAESNSCKFPAGIKIINHPTMPNTQVVAIPNNANIHSIITALTAKGKESGSSGPNKFILISCGGAPTQPPGLRPQTQTSYDAKRTEVTLETLGPKPAARDVNLPRPPGALCEQKRETCADGEAAGCTINNSLSNIQWLRKMSSDGLGSRSIKQEMEEKENCHLEQRQVKVEEPSRPSASWQNSVSERPPYSYMAMIQFAINSTERKRMTLKDIYTWIEDHFPYFKHIAKPGWKNSIRHNLSLHDMFVRETSANGKVSFWTIHPSANRYLTLDQVFKQQKRPNPELRRNMTIKTELPLGARRKMKPLLPRVSSYLVPIQFPVNQSLVLQPSVKVPLPLAASLMSSELARHSKRVRIAPKVFGEQVVFGYMSKFFSGDLRDFGTPITSLFNFIFLCLSVLLAEEGIAPLSSAGPGKEEKLLFGEGFSPLLPVQTIKEEEIQPGEEMPHLARPIKVESPPLEEWPSPAPSFKEESSHSWEDSSQSPTPRPKKSYSGLRSPTRCVSEMLVIQHRERRERSRSRRKQHLLPPCVDEPELLFSEGPSTSRWAAELPFPADSSDPASQLSYSQEVGGPFKTPIKETLPISSTPSKSVLPRTPESWRLTPPAKVGGLDFSPVQTSQGASDPLPDPLGLMDLSTTPLQSAPPLESPQRLLSSEPLDLISVPFGNSSPSDIDVPKPGSPEPQVSGLAANRSLTEGLVLDTMNDSLSKILLDISFPGLDEDPLGPDNINWSQFIPELQ
# Target: PKM2 (purchased from Abcam) (UniProt P14618 1-531)
# Assay: cell-based or functional assay
# PKM2 (purchased from Abcam), sequence (P14618 whole entry): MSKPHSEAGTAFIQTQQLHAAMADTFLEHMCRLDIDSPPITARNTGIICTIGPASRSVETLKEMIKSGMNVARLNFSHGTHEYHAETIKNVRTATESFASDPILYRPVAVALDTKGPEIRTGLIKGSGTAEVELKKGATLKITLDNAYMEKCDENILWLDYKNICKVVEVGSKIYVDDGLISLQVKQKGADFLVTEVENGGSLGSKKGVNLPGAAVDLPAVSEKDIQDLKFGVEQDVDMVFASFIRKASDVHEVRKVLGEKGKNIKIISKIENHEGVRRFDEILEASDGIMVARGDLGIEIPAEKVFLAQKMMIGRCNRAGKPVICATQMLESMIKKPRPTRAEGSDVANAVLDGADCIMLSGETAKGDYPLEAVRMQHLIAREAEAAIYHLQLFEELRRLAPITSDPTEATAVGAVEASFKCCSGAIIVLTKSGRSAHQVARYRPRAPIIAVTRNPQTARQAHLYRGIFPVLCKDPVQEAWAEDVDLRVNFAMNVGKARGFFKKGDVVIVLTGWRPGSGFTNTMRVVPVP
binder,measurement,value
B1,"PK activity of PKM2 with FBP; FOXM1D added at 10, 20 and 30 μg per 10 μg PKM2 (molar ratios about 0.665, 1.33 and 2); share of the activity abolished at 1.33-fold FOXM1D",~49%
